Broadly, the Kd is the free concentration of one partner at which half of the binding sites on the other are occupied at equilibrium, for simple one-to-one binding.

The text below walks through data of publication PMC7617869 (Nature Structural & Molecular Biology, 2025).

Settings in all cases: both partners purified
In experiment [1] the target is T1, His-tagged BRISC (wild type) (human, UniProt P46736 1-316; Q15018 1-415; Q9NXR7 1-383; Q9NWV8 1-329). Description: other fluorescence titration; spectral shift (Dianthus); 12.5 nM RED-Tris-NTA-labelled His–BRISC, SHMT2(A285T) 46 μM to 1.4 nM; 25 mM HEPES pH 7.5, 150 mM NaCl, 1 mM DTT, 0.005% Tween-20; 25 °C; no compound.
Experiment [2] has as its target T1, His-tagged BRISC (wild type). The experiment is described as follows: other fluorescence titration; spectral shift (Dianthus); labelled His–BRISC first incubated with 100 μM FX-171-C (1% DMSO) 15 min, then with SHMT2(A285T) 30 min at 25 °C.
The target is the same in experiment [3]. Description: other fluorescence titration; spectral shift (Dianthus); labelled His–BRISC first incubated with 100 μM JMS-175-2 (1% DMSO) 15 min, then with SHMT2(A285T) 30 min at 25 °C.

B1: SHMT2ΔN(A285T) (residues 18–504) (enzyme)
chain: QLVRMAIRAQHSNAAQTQTGEANRGWTGQESLSDSDPEMWELLQREKDRQCRGLELIASENFCSRAALEALGSCLNNKYSEGYPGKRYYGGAEVVDEIELLCQRRALEAFDLDPAQWGVNVQPYSGSPANLAVYTALLQPHDRIMGLDLPDGGHLTHGYMSDVKRISATSIFFESMPYKLNPKTGLIDYNQLALTARLFRPRLIIAGTSAYARLIDYARMREVCDEVKAHLLADMAHISGLVAAKVIPSPFKHADIVTTTTHKTLRGTRSGLIFYRKGVKAVDPKTGREIPYTFEDRINFAVFPSLQGGPHNHAIAAVAVALKQACTPMFREYSLQVLKNARAMADALLERGYSLVSGGTDNHLVLVDLRPKGLDGARAERVLELVSITANKNTCPGDRSAITPGGLRLGAPALTSRQFREDDFRRVVDFIDEGVNIGLEVKSKTAKLQDFKSFLLKDSETSQRLANLRQRVEQFARAFPMPGFDEH
notes: serine hydroxymethyltransferase 2 (SHMT2), residues 18-504; also called SHMT2(A285T); serine hydroxymethyltransferase 2
In the case of B1, the dissociation constant Kd in experiment [1] was determined as 400 ± 100 nM. In addition, the “KD after incubation of BRISC with FX-171-C” value in experiment [2] worked out at 3600 ± 1800 nM. Further, the “KD after incubation of BRISC with JMS-175-2” value in experiment [3] was determined as 700 ± 300 nM.
